Among the data in the Immune Epitope Database (IEDB) are Kd and IC50 values, retold here.

A value given as a limit tells only on which side of the number the result lay.

The target in one experiment is HLA-A*01:01. As to the kind of experiment: IEDB peptide-MHC binding, purified MHC/competitive/radioactivity; filed as Kd, often an IC50 or EC50 that approximates it; ≥ and ≤ were set here for values at or beyond the usual limits of such assays.
Another experiment deals with HLA-A*23:01. The experiment is described as above.
A further experiment addresses HLA-A*24:02. The description is as above.
The target in a further experiment is HLA-A*26:01. The experiment is described as above.
A further experiment deals with HLA-A*29:02. The experiment is described as above.
The target in another experiment is HLA-A*30:02. The description is as above.
For the next experiment, the target named is HLA-B*44:03. The experiment is described as above.
The next experiment addresses HLA-B*40:01. The experiment is described as above.
Experiment [1] deals with HLA-A*02:01. As to the kind of experiment: IEDB peptide-MHC binding, purified MHC/competitive/fluorescence; ≥ and ≤ were set here for values at or beyond the usual limits of such assays.
The next experiment concerns the target HLA-A*03:01. As to the kind of experiment: IEDB peptide-MHC binding, purified MHC/competitive/radioactivity; filed as Kd, often an IC50 or EC50 that approximates it; ≥ and ≤ were set here for values at or beyond the usual limits of such assays. Conditions: source organism: SARS coronavirus Tor2.
Another experiment concerns the target HLA-A*11:01. The description is as above. Conditions: source organism: SARS coronavirus Tor2.
The target in a further experiment is HLA-A*31:01. The experiment is described as above. Conditions: source organism: SARS coronavirus Tor2.
The next experiment addresses HLA-A*33:01. Described as above. Conditions: source organism: SARS coronavirus Tor2.
In the next experiment the target is HLA-A*68:01. The description is as above. Conditions: source organism: SARS coronavirus Tor2.
For the next experiment, the target named is HLA-B*44:02. The description is as above.
The target of experiment [2] is HLA-A*02:01. Nature of the experiment: IEDB peptide-MHC binding, purified MHC/direct/fluorescence; filed as Kd, often an IC50 or EC50 that approximates it; ≥ and ≤ were set here for values at or beyond the usual limits of such assays. Conditions: source organism: Vaccinia virus Copenhagen.
Another experiment deals with HLA-A*69:01. Described as above. Conditions: source organism: Vaccinia virus Copenhagen.
The target in the next experiment is HLA-B*15:01. The description is as above. Conditions: source organism: Vaccinia virus Copenhagen.
The target of the next experiment is HLA-B*58:01. The experiment is described as above. Conditions: source organism: Vaccinia virus Copenhagen.
Setting [3] is: source organism: Triticum aestivum.
Where [4] appears, read: source organism: SARS coronavirus Tor2.
[5] abbreviates: source organism: Zaire ebolavirus.
[6] abbreviates: source organism: Lymphocytic choriomeningitis virus (strain Armstrong).
Where [7] appears, read: source organism: Dengue virus 4 Philippines/H241/1956.
[8] abbreviates: source organism: Dengue virus 2 Jamaica/1409/1983.

Regarding QFLGQQQPF, the equilibrium dissociation constant (Kd) with HLA-A*01:01 (setting [3]) is at least 78100 nM; with HLA-A*23:01 (setting [3]) it was 7750 nM; in the experiment with HLA-A*24:02 (setting [3]), 206 nM; with HLA-A*26:01 (setting [3]), at least 77900 nM; with HLA-A*29:02 (setting [3]), 1470 nM; with HLA-A*30:02 (setting [3]), 831 nM.

Regarding VFHLYLQYI, the Kd with HLA-A*01:01 (setting [4]) was 198 nM; with HLA-A*23:01 (setting [4]), 566 nM; with HLA-A*24:02 (setting [4]), 1090 nM; in the experiment with HLA-A*26:01 (setting [4]) it was 90.7 nM; with HLA-A*29:02 (setting [4]), at least 71400 nM; with HLA-A*30:02 (setting [4]) it was at least 125000 nM.

As to CGSVGFNIDY, the dissociation constant (Kd) is 7300 nM with HLA-A*01:01 (setting [4]); at least 70000 nM with HLA-A*23:01 (setting [4]); at least 70300 nM with HLA-A*24:02 (setting [4]); at least 20700 nM with HLA-A*26:01 (setting [4]); 774 nM with HLA-A*29:02 (setting [4]); 371 nM in the experiment with HLA-A*30:02 (setting [4]).

On to MENKAWLVH, for which the Kd with HLA-B*44:03 (source organism: Dengue virus 2 16681-PDK53) was determined as 168 nM.

As to PVSIINNAVY, the dissociation constant (Kd) was 10400 nM in the experiment with HLA-A*01:01 (setting [4]); at least 70000 nM in the experiment with HLA-A*23:01 (setting [4]); at least 70300 nM with HLA-A*24:02 (setting [4]); 1580 nM with HLA-A*26:01 (setting [4]); 101 nM with HLA-A*29:02 (setting [4]); 601 nM with HLA-A*30:02 (setting [4]).

Take EEMFKKRNLT: the equilibrium dissociation constant (Kd) in the experiment with HLA-B*44:03 (source organism: Dengue virus 3 Martinique/1243/1999) came to 4530 nM.

On to EELPDTIETL, for which, in the experiment with HLA-B*40:01 (source organism: Dengue virus 1 Brazil/97-11/1997), the dissociation constant (Kd) was 166 nM.

Regarding AHGSTLAGV, the concentration for half-maximal inhibition (IC50) in the experiment with HLA-A*02:01 [1] (setting [5]) was 59900 nM.

Take RYQVVECKEV: the Kd with HLA-A*01:01 (setting [6]) is at least 70400 nM; with HLA-A*23:01 (setting [6]), at least 70000 nM; with HLA-A*24:02 (setting [6]), at least 70300 nM; with HLA-A*26:01 (setting [6]) it was at least 69700 nM; in the experiment with HLA-A*29:02 (setting [6]) it was at least 71400 nM; with HLA-A*30:02 (setting [6]), 159 nM.

With TVAYFNMVY, the Kd with HLA-A*01:01 (setting [4]) worked out at 123 nM; with HLA-A*03:01 it was 41.3 nM; with HLA-A*11:01, 60.5 nM; in the experiment with HLA-A*23:01 (setting [4]) it was 14100 nM; in the experiment with HLA-A*24:02 (setting [4]), 11000 nM; with HLA-A*26:01 (setting [4]) it was 14.2 nM. Besides, the dissociation constant (Kd) in the experiment with HLA-A*29:02 (setting [4]) is 3.81 nM; in the experiment with HLA-A*30:02 (setting [4]), 71 nM; with HLA-A*31:01 it was at least 56900 nM; in the experiment with HLA-A*33:01, at least 52000 nM; in the experiment with HLA-A*68:01 it was 75.9 nM.

The sequence DNSTHNTPV displayed an IC50 with HLA-A*02:01 [1] (setting [5]) of at least 456000 nM.

Regarding LDEWSVATFY, the dissociation constant (Kd) in the experiment with HLA-A*01:01 (setting [4]) was 2380 nM; in the experiment with HLA-A*23:01 (setting [4]) it was at least 47900 nM; in the experiment with HLA-A*24:02 (setting [4]) it was at least 32900 nM; with HLA-A*26:01 (setting [4]) it was at least 21400 nM; with HLA-A*29:02 (setting [4]), 95.2 nM; in the experiment with HLA-A*30:02 (setting [4]) it was 495 nM.

Take KYKYFSGAL: the Kd was at least 78100 nM in the experiment with HLA-A*01:01 (setting [4]); 15000 nM with HLA-A*23:01 (setting [4]); at least 25700 nM with HLA-A*24:02 (setting [4]); at least 75500 nM in the experiment with HLA-A*26:01 (setting [4]); at least 25000 nM with HLA-A*29:02 (setting [4]); at least 44600 nM with HLA-A*30:02 (setting [4]).

Consider GESSSNPTI, for which the dissociation constant (Kd) worked out at 16.8 nM in the experiment with HLA-B*40:01 (setting [7]) and 75.2 nM in the experiment with HLA-B*44:02 (setting [7]).

Take REDQWCGSLI: the Kd stood at 373 nM in the experiment with HLA-B*44:02 (setting [8]) and 888 nM with HLA-B*44:03 (setting [8]).

For the sequence LEKAANVQW, the figures for the dissociation constant Kd with HLA-B*44:02 (setting [7]) and with HLA-B*44:03 (setting [7]) were 58.4 nM and 392 nM, respectively.

KELKCGSGI: the Kd with HLA-B*40:01 (setting [8]) came out at 206 nM; in the experiment with HLA-B*44:02 (setting [8]), 678 nM.

LVINRLGAD: in the experiment with HLA-A*02:01 [1] (source organism: Vaccinia virus WR), the half-inhibitory concentration (IC50) is at least 131000 nM.

VISNSVAQA returned an IC50 with HLA-A*02:01 [1] (setting [5]) of 5790 nM.

In the experiment with HLA-A*02:01 [1] (setting [5]), VTLRKERLA had an IC50 of at least 360000 nM.

Regarding DLGPAFTEL, the Kd was 219 nM with HLA-A*02:01 [2], 22.2 nM with HLA-A*69:01, at least 27700 nM in the experiment with HLA-B*15:01 and 8710 nM with HLA-B*58:01.

For the sequence IEETNMITL, the dissociation constant Kd in the experiment with HLA-B*40:01 (setting [7]) was 11.9 nM.

In the experiment with HLA-A*02:01 [1] (setting [5]), DKIDQIIHD displayed an IC50 of at least 387000 nM.

With HTSSMRGVYY, the Kd was 58.5 nM with HLA-A*01:01 (setting [4]); at least 70000 nM in the experiment with HLA-A*23:01 (setting [4]); at least 46800 nM with HLA-A*24:02 (setting [4]); 52.7 nM with HLA-A*26:01 (setting [4]); 17.8 nM with HLA-A*29:02 (setting [4]); 3.4 nM in the experiment with HLA-A*30:02 (setting [4]).

A word on the Kd: it is a measure of binding affinity in units of concentration. A word on the IC50: it is the concentration that inhibits the measured activity by half. A higher IC50 goes with weaker potency in that assay.
